The results in this text go back to patent US9745357B2, “Peptides used for treating cancers and, in particular, chronic lymphoid leukaemia” (Centre National de la Recherche Scientifique, priority 2009, dated 2017).

Entries after “also recorded” stand apart in the source; their conditions may differ. No end group written: not given here.

For this experiment, the target named is T1, eIF4E (Mus musculus, UniProt P63073).
T1 construct: made in house; host or cells: E. coli BL21DE3 (Novagen), pGEX-4T-1 vector
The experiment is described as follows: Test for interaction of YFP-fused peptide sequences with eIF4E (GST-eIF4E beads, affinity chromatography). The experiment is classed as binding. As to conditions: 35S Met-labeled YFP fusion produced in rabbit reticulocyte lysate; SDS-PAGE, autoradiography; FIG. 1. The source says:
The eIF4E protein fused to glutathione-S-transferase (GST-eIF4E) or GST alone (GST), used as a control, are produced in bacteria, purified and immobilized on glutathione beads. The YFP, YFP-A1 WT and YFP-A1 YALA proteins were produced in rabbit reticulocyte lysate in the presence of 35S methionine and chromatographed on the GST-eIF4 or GST beads. The proteins retained on the beads are eluted and analyzed by SDS-PAGE followed by autoradiography.
The plasmids encoding the YFP protein-peptides were obtained by amplification of the reading frame of the YFP protein (enhanced yellow-green variant of the Aequorea victoria green fluorescent protein) from the pEYFP-C1 plasmid (Clontech). The 5′ primer used (sequence described below) made it possible to insert a T7 promoter (underlined sequence) upstream of the reading frame of YFP. […] The pGEX 4E plasmid was obtained by inserting the reading frame of the mouse eIF4E protein at the BamHI/EcoRI sites of the PGEX-4T-1 vector (Amersham pharmacia biotech). […] After washing, the proteins were eluted with SDS loading buffer, and analyzed, after an SDS-PAGE gel, by autoradiography (Typhoon Phospholmager, Amersham Pharmacia Biotech).
Biochemical validation of the peptides identified was then carried out by means of affinity chromatography approaches. […] The ability of these peptides to interact with eIF4E was then analyzed by affinity chromatography. […]

T1 sequence (P63073 whole entry): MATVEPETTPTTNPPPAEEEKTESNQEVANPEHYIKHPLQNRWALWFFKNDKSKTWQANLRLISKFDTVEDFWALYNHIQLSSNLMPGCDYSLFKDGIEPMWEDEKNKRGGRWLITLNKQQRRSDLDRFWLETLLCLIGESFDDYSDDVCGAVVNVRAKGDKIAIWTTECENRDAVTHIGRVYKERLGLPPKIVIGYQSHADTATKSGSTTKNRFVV

Take “YFP-A1 WT: YFP, yellow fluorescent protein, fused to a peptide derived from the human Angel 1 protein, of sequence RRKYGRDFLLRF (SEQ ID No. 3) (also: fused to YFP)”: the “interaction with eIF4E (retention on GST-eIF4E beads)” value is listed as “associates more strongly with eIF4E than the other peptides tested; also recorded: is retained on GST-eIF4E beads”.
